The target of this assay is T1, Recombinant 6xHis-tagged human VDAC1 (Voltage-Dependent Anion Channel 1) (human, UniProt P21796 1-283).
T1 construct: Voltage-Dependent Anion selective Channel 1 (VDAC1), human; PDB 6G6U is the cited crystal structure of human VDAC1, used only for docking; also called mitochondrial porin; porin; not shown: His6, C-terminal, kept
Description: pull-down + SEC; 1 uM C-terminal His-tagged VDAC1 immobilised on Ni2+-Sepharose beads, incubated with 1 uM NHK1-FITC for 24 h; unbound peptide washed off; eluted with 200 mM imidazole; eluate loaded on Superdex200 and the complex detected by FSEC (ex/em 494/518 nm), with the VDAC1 profile at 280 nm. Conditions: both partners purified.

Primed or numbered codes have the meaning given here. Where no end group is shown, it is not given here. FITC′ = not defined here

This is an account of results in PMC8392704, “Small Hexokinase 1 Peptide against Toxic SOD1 G93A Mitochondrial Accumulation in ALS Rescues the ATP-Related Respiration” (Biomedicines, 2021).

T1 sequence (P21796 whole entry): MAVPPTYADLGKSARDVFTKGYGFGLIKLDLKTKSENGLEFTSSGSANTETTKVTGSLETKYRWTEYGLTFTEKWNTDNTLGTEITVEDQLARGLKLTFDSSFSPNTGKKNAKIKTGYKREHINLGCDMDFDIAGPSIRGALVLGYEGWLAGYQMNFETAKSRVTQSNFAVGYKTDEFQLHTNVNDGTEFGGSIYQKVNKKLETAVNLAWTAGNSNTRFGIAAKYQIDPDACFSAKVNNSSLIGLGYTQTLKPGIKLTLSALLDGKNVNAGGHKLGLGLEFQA

B1: NHK1-FITC peptide (FITC-labeled NHK1, residues 2-12 of human HK1) (peptide)
peptide: IAAQLLAYYFT-{FITC′}
notes: hexokinase 1 (HK1), human, amino acids 2-12; also called FITC-NHK1; NHKI; source: synthetic peptide, produced by Proteogenix
Turning to B1, the binding result was “binds”.
